{
  "source": "paper PMC8835667",
  "target": "tripartite motif containing 28 (TRIM28) (human (endogenous in HeLa)) (UniProt Q13263)",
  "sequence (Q13263 whole entry, the tested form may be a part)": "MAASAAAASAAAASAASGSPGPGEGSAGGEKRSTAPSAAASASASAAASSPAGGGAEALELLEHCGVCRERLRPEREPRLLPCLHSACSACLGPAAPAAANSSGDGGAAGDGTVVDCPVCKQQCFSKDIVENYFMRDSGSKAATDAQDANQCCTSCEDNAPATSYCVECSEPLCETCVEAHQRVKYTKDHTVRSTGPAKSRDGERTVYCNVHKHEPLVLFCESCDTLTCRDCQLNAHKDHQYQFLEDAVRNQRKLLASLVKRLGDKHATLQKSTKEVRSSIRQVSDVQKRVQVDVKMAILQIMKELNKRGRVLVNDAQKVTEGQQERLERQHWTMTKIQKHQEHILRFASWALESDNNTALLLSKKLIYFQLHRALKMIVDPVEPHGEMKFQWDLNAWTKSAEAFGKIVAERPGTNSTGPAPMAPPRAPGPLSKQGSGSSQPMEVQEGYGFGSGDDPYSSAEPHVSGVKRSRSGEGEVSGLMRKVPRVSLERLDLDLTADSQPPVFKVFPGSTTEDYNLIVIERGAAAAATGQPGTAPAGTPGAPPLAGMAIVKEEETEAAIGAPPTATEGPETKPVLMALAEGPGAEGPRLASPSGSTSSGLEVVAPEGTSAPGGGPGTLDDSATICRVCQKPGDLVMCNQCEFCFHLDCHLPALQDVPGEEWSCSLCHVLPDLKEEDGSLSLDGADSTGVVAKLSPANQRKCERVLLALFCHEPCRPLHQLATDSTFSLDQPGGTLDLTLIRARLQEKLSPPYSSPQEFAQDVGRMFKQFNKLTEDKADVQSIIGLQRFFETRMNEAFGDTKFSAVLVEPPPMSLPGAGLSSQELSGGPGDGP",
  "data": [
    {"substance": "GST fusion of wild-type PRDM9 aKRAB-A with ZNF10-B (domain or fragment)", "values": [
      {"measurement": "transcriptional repression factor over Gal4-DBD alone, dual luciferase reporter assay in HeLa cells (KRAB domain as Gal4-DBD fusion)", "value": 0.9, "unit": "fold"}
    ]}
  ]
}
